Test results from publication PMC12912723.

Biological target: PscF from strain PAO1 (Pseudomonas aeruginosa) (UniProt P95434)
Assay: ELISA; competition with biotinylated P1D8

## P1D8 (human anti-PscF monoclonal antibody) (from UniProt P01857)
  IC50: 0.01 µg/mL
